The source of these data is patent publication US20140212432A1 (University of California, published 2014).

In experiment [1] the target is T1, active human urokinase-type plasminogen activator (uPA) (human, UniProt P00749 21-177; P00749 179-431). Briefly: steady-state enzyme inhibition of soluble uPA.
For experiment [2], the target named is T2, uPA-PAI-1 complex (human, UniProt P00749 21-177; P00749 179-431; P05121 24-402). Briefly: binding of U33 Fab to uPA pre-incubated with PAI-1.
Experiment [3] deals with T3, human pro-uPA (zymogen uPA) (human, UniProt P00749 21-431).
T3 construct: mature
As to the kind of experiment: quantitative ELISA, uPA-coated plates. The method, then:
(§1) Serial dilutions of pure U33 were added to uPA coated plates and incubated for 1 hour. The amount of Fab bound to uPA was determined by ELISA. U33 Fab was detected only in wells coated with human active uPA. Panel B depicts inhibition of human uPA by U33. The proteolytic activity of human or mouse uPA was read in absence and presence of 1 μM of U33. The enzyme activity is expressed as percentage of the uPA activity in absence of Fab (100%). […] Serial dilutions of U33-Fab were added to uPAR-uPA coated plates and incubated for 1 hour and the activity of uPA was read. Panel D depicts prevention of uPA binding to PAI-1 coated plates by U33. Serial dilutions of pure U33 (4 μM to 31.2 nM) were pre-incubated overnight with uPA and added to PAI-1 coated plates. The amount of uPA bound to PAI was determined by ELISA. […] Serial dilutions of U33 were added to a uPA-coated plate pre-incubated with and without 1 μM CMK. The amount of U33 Fab bound to uPA was determined by ELISA.
(§2) The affinity and specificity of the U33 Fab was determined using quantitative ELISA as well as inhibition assays with human uPA (active and zymogen) and mouse uPA.

Experiment [4] deals with T4, mouse uPA (mouse, UniProt P06869 21-433, limits assumed).
T4 construct: The construct is not described; It was active-site titrated in the IgG ELISA, so it was an active form; also called mouse enzyme
T4 sequence (P06869 21-433 limits assumed): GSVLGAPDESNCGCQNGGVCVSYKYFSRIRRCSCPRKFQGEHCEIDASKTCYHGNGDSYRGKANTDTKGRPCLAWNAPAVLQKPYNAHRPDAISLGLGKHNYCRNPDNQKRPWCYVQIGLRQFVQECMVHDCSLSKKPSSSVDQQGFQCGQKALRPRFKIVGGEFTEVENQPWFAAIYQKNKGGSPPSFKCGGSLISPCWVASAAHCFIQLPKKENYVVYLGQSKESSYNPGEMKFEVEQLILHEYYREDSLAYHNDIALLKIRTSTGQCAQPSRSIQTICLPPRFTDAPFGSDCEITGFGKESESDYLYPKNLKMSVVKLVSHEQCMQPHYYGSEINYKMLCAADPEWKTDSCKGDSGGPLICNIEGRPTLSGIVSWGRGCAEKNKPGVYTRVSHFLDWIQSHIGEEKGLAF
Briefly: quantitative ELISA, uPA-coated plates. On the procedure: as §1, §2
For orientation: ELISA stands for enzyme-linked immunosorbent assay.

Experiment [5] has as its target T3, human pro-uPA (zymogen uPA). As to the kind of experiment: ELISA, plate coated with pro-uPA. On the procedure: (§3) ELISA assays were performed to further assess the selectivity of U33 IgG for uPA compared to highly related serine proteases. All proteases were active site-titrated to ensure that identical concentrations of active protease were adsorbed to the ELISA plate. After blocking, increasing concentrations of U33 IgG were incubated for 1 hour at RT. Unbound U33 IgG was removed by washing and bound U33 IgG was detected with an anti-human Fc-HRP secondary. 50 μL at of 2.8 nM active protease in coating buffer were added to each well in a Nunc Maxisorb ELISA plate and incubated 0/N at 4° C. Unbound protease was removed by hand washing wells 3× with wash buffer. Wells were incubated in 200 μL of Block Solution per well for 2 h at RT. Block Solution was removed by hand washing wells 3× with wash buffer. 50 μL of U33 IgG in Block Solution was added for 1 h at RT. The highest U33 IgG concentration was 651 nM, and was decreased in two-fold increments to 5.1 nM. Unbound U33 IgG was removed by hand washing wells 6× with wash buffer. 50 μL of 1:2000 dilution of secondary antibody in Block Solution was added for 1 h at RT. Unbound secondary antibody was removed by hand washing wells 6× with wash buffer. 100 μL of 1-step Ultra TMB-ELISA was added and then quenched with 100 μL of 1 M HCl. Signal was quantified by measuring A₄₅₀ on plate reader. […]

Experiment [6] has as its target T1, active human urokinase-type plasminogen …. As to the kind of experiment: enzyme inhibition of uPA.
The target of the next experiment is thrombin (UniProt P00734 328-622). Briefly: ELISA, protease-coated plate, anti-human Fc-HRP detection. The method, then: (§4) ELISA assays were performed to further assess the selectivity of U33 IgG for uPA compared to highly related serine proteases. All proteases were active site-titrated to ensure that identical concentrations of active protease were adsorbed to the ELISA plate. After blocking, increasing concentrations of U33 IgG were incubated for 1 hour at RT. Unbound U33 IgG was removed by washing and bound U33 IgG was detected with an anti-human Fc-HRP secondary. 50 μL at of 2.8 nM active protease in coating buffer were added to each well in a Nunc Maxisorb ELISA plate and incubated 0/N at 4° C. Unbound protease was removed by hand washing wells 3× with wash buffer. Wells were incubated in 200 μL of Block Solution per well for 2 h at RT. Block Solution was removed by hand washing wells 3× with wash buffer. 50 μL of U33 IgG in Block Solution was added for 1 h at RT. The highest U33 IgG concentration was 651 nM, and was decreased in two-fold increments to 5.1 nM. Unbound U33 IgG was removed by hand washing wells 6× with wash buffer. 50 μL of 1:2000 dilution of secondary antibody in Block Solution was added for 1 h at RT. Unbound secondary antibody was removed by hand washing wells 6× with wash buffer. 100 μL of 1-step Ultra TMB-ELISA was added and then quenched with 100 μL of 1 M HCl. Signal was quantified by measuring A₄₅₀ on plate reader. Results for U33 binding to uPA, thrombin, HGFA, hepsin, chymotrypsin and trypsin are shown in FIG. 4, panel A. Results for U33 binding to uPA, MT-SP1 and plasmin are shown in FIG. 4, panel B. Results for U33 binding to uPA and tPA are shown in FIG. 4, panel C. […] Therefore U33 IgG can discriminate between proteases with identical catalytic mechanisms and similar protein folds.

The target of a further experiment is hepsin (UniProt P05981 45-417, limits assumed). Described as above. On the procedure:
as §4

In a further experiment the target is T5, MT-SP1 (UniProt Q9Y5Y6 615-855, limits assumed).
T5 sequence (looked up): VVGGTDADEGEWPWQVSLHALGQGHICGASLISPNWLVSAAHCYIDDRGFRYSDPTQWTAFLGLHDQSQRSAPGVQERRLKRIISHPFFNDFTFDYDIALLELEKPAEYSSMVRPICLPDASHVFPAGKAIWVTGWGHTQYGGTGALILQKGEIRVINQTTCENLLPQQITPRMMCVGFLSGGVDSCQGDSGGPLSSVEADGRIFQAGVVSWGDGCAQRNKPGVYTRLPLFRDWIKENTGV
The description is as above. On the procedure:
as §4

In the next experiment the target is plasmin (UniProt P00747 97-810, limits assumed). The experiment is described as above. The method, then: as §4
Chain of plasmin (P00747 97-810 limits assumed): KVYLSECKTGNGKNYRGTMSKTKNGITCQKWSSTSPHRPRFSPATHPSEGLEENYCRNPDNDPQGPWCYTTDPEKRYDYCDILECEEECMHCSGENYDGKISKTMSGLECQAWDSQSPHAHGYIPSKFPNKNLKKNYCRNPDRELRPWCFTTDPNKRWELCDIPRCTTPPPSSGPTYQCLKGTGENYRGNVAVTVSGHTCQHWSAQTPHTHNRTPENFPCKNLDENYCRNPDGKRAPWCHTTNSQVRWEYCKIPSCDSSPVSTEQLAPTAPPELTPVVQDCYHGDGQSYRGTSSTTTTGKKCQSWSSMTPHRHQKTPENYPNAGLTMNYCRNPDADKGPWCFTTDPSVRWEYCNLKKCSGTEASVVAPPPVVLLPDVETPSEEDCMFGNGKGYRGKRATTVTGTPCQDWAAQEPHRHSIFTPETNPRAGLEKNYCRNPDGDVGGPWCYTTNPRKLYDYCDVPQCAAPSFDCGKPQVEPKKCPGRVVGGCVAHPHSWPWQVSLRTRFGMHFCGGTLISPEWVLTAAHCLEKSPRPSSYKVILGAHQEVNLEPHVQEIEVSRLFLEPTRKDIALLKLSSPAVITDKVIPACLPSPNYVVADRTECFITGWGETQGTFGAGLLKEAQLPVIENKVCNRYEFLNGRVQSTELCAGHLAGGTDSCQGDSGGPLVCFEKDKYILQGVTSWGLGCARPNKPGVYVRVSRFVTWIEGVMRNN
For another experiment, the target named is T6, HGFA (UniProt Q04756 373-655, limits assumed).
T6 sequence (looked up): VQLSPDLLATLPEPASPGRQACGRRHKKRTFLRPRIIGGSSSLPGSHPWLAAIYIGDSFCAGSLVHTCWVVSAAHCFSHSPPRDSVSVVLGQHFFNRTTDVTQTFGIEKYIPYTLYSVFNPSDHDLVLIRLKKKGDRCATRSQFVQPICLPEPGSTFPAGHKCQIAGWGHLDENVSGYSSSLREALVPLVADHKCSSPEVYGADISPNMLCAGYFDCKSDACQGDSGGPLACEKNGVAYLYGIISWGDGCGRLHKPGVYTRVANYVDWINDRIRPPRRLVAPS
The description is as above. The method, then:
as §4

Another experiment deals with tPA (UniProt P00750 36-562). The description is as above. On the procedure: as §4
Chain of tPA (P00750 36-562 limits assumed): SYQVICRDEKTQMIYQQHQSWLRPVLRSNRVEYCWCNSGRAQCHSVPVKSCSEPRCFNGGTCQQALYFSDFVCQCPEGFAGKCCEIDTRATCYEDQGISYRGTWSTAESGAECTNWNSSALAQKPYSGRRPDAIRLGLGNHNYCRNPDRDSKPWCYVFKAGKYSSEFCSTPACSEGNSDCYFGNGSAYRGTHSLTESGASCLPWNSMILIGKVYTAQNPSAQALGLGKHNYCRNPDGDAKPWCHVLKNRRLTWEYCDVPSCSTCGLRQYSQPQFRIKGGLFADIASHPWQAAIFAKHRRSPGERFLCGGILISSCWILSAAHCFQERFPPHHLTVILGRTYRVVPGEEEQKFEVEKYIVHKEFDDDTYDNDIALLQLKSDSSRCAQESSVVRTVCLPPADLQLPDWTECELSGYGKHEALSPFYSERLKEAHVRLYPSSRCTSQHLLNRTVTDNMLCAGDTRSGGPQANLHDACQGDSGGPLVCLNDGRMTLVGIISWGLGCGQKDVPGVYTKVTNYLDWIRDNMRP
For experiment [7], the target named is T4, mouse uPA. Described as above. The method, then:
as §4

Experiment [8] addresses T2, uPA-PAI-1 complex. As to the kind of experiment: ELISA, uPA-coated plate pre-treated with PAI-1 (133 nM to 8.3 nM). The method, then:
as §3

Chain of hepsin (P05981 45-417 limits assumed): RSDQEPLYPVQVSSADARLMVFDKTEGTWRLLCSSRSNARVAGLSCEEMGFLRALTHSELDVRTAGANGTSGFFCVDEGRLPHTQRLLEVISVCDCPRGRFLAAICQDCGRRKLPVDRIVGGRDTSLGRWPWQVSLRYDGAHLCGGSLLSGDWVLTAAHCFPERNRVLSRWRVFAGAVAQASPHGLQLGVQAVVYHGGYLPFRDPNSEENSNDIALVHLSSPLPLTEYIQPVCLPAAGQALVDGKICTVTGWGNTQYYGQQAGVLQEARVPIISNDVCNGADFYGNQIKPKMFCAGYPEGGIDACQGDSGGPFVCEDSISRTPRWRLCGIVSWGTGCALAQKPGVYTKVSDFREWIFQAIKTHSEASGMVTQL

B1: U33 Fab (Fab, V domains shown)
VH: EVQLVQSGGGLVKPGRSLRLSCTASGFTFGDYAMSWVRQAPGKGLEWVGFIRSKAYGGTTEYAAVKGRFTISRDDSKSIAYLQMNSLKTEDTAVYYCIRGANWNWGQGTLVTVSS
VL: EIVLTQSPLSLPVTPGEPASISCRSSQTLMNRNGNNFLDWYLQKPGQSPQLLIYLGSNRAPGVPDRFSGSGSGTDFTLKISRVEAEDVGVYYCMQRIEFPYTFGQGTKLEIKR
notes: Human Fab from a naive B cell phage display library; also called clone U33; Fab U33
B1 registered an inhibition constant (Ki) in [1] of 20 nM. The binding result (with uPA-PAI-1 complex [2]; in experiment [3]; in the experiment with mouse uPA [4]) was “no binding” in each case.

B2: U33 IgG (antibody, V domains shown)
VH: B1 VH
VL: B1 VL
notes: U33 Fab converted to full length IgG; It was detected with an anti-human Fc secondary; The internalisation study used the 111In-DOTA labelled form; also called full length IgG; 111In-U33 IgG
Turning to B2, the binding result (in [5]; with thrombin; with hepsin; with MT-SP1; in the experiment with plasmin; with HGFA) was “no binding (tested: highest U33 IgG concentration 651 nM)” in each case. In addition, the binding result in the experiment with tPA, with mouse uPA [7] and with uPA-PAI-1 complex [8] was “no binding (tested: highest U33 IgG concentration 651 nM)” each time. For the same molecule, the Ki in [6] amounted to 10 nM.

The term Ki denotes the equilibrium dissociation constant of an inhibitor or competing ligand from its target. Read a low Ki as higher affinity.
